Test results as given in the supplement of paper PMC10724198.
± gives the standard deviation of the averaged measurements.

How the values were obtained:
Experiment in all cases: protein stability index of tFT-peptide fusion (C-terminal peptide) (PSI (0-1 scale)); higher = more stable (slower turnover)
[1] = system: Saccharomyces cerevisiae; conditions: temperature: 30 C
Protocol: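 MPS profiling in S. cerevisiae of the yeast C-terminome library: the last 12 aa of each annotated ORF are fused to the C-terminus of a sfGFP-mCherry timer, after a GGGS linker. Cells are FACS-sorted into 8 mCherry/sfGFP bins and deep-sequenced. PSI runs from 0 (unstable) to 1 (stable); wild type and das1Δ backgrounds, two technical replicates each.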

[2] = system: Saccharomyces cerevisiae
Protocol: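 MPS profiling in S. cerevisiae of the tFT-X12 degron library: putative degron peptides plus stable controls, 12 aa, fused to the C-terminus of a sfGFP-mCherry timer. Cells are FACS-sorted into 8 mCherry/sfGFP bins and deep-sequenced. PSI runs from 0 (unstable) to 1 (stable). Backgrounds are wild type, das1Δ and doa10Δ at 30 °C, and wild type, das1Δ, cdc34-1 and cdc53-1 at 37 °C; 2-3 technical replicates each.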

[3] = system: Saccharomyces cerevisiae; conditions: genetic background: wild type; temperature: 30 C
[4] = genetic background: das1 deletion
[5] = genetic background: cdc34-1, temperature: 37 C
[6] = genetic background: cdc53-1, temperature: 37 C
[7] = genetic background: das1 deletion, temperature: 30 C
[8] = genetic background: das1 deletion, temperature: 37 C
[9] = genetic background: doa10 deletion, temperature: 30 C
[10] = genetic background: wild type, temperature: 30 C
[11] = genetic background: wild type, temperature: 37 C

Sequence	protein stability index [1, 4]	protein stability index ([1]; genetic background: wild type)	protein stability index [2, 5]	protein stability index [2, 6]	protein stability index [2, 7]	protein stability index [2, 8]	protein stability index [2, 9]	protein stability index [2, 10]	protein stability index [2, 11]	protein stability index [3]
KLDDIIRARRSR [TGL3 C-terminal 12 aa]	0.7405 ± 0.0066	0.692 ± 0.034								
SKPALGSCLYEL [GAL1 C-terminal 12 aa]	0.6989 ± 0.0023	0.687 ± 0.012								
NIIHSGDVLLAE [LEU9 C-terminal 12 aa]	0.677 ± 0.019	0.708 ± 0.035								
YCFAKNDLFFNN [POM152 C-terminal 12 aa]	0.743 ± 0.014	0.716 ± 0.011								
SNEHSSENTAGP [STE3 C-terminal 12 aa]	0.696 ± 0.013	0.684 ± 0.014								
EEGQTQPEEESA [BUR6 C-terminal 12 aa]	0.691 ± 0.0078	0.692 ± 0.033								
INQEAYQAFLRR [GUF1 C-terminal 12 aa]	0.7022 ± 0.0031	0.7039 ± 0.0062								
ERKLSTKKVSVE [YHR078W C-terminal 12 aa]	0.707 ± 0.052	0.7 ± 0.032								
FVVKEGLLKNRK [GTF1 C-terminal 12 aa]	0.701 ± 0.027	0.7 ± 0.024								
NEKLSRESKGSE [SYF2 C-terminal 12 aa]	0.687 ± 0.01	0.691 ± 0.014								
IQEISAAVKKYT [SAM4 C-terminal 12 aa]	0.704 ± 0.014	0.728 ± 0.038								
DKELDSTFDTFG [MIF2 C-terminal 12 aa]	0.701 ± 0.012	0.699 ± 0.023								
PIRRQFYLNSRQ [YML047W-A C-terminal 12 aa]	0.701 ± 0.011	0.691 ± 0.017								
NILKVDSNSSSS [RGR1 C-terminal 12 aa]	0.7201 ± 0.0019	0.702 ± 0.029								
EHLWNCFFHGSD [IRC20 C-terminal 12 aa]	0.73 ± 0.012	0.731 ± 0.061								
LTEILSKVFNRL [DUG2 C-terminal 12 aa]	0.702 ± 0.018	0.678 ± 0.033								
PDLPSTIKPLAD [BCH2 C-terminal 12 aa]	0.693 ± 0.018	0.693 ± 0.0094								
EVDDDGEIEGLF [MIS1 C-terminal 12 aa]	0.7072 ± 0.0051	0.684 ± 0.022								
KKKGLFGRMKKK [YMR295C C-terminal 12 aa]	0.719 ± 0.028	0.69 ± 0.067								
SQSFNPLESVQE [YPL229W C-terminal 12 aa]	0.7038 ± 0.0039	0.709 ± 0.1								
EGEDEELDIDDI [TIF11 C-terminal 12 aa]	0.671 ± 0.0097	0.6717 ± 0.0065								
IGFNKLGQMVYI [MRPS35 C-terminal 12 aa]	0.669 ± 0.018	0.666 ± 0.029								
PNKDVEQGNDMV [AKR1 C-terminal 12 aa]	0.6883 ± 0.00087	0.695 ± 0.05								
LEVYASGNPNAT [NDC1 C-terminal 12 aa]	0.697 ± 0.016	0.692 ± 0.0073								

Sequence	protein stability index [1, 4]	protein stability index ([1]; genetic background: wild type)	protein stability index [2, 5]	protein stability index [2, 6]	protein stability index [2, 7]	protein stability index [2, 8]	protein stability index [2, 9]	protein stability index [2, 10]	protein stability index [2, 11]	protein stability index [3]
YFKVFDWCKQKR [CLB6 C-terminal 12 aa]	0.681 ± 0.018	0.684 ± 0.043								
GVVVWWCYFVFV			0.181 ± 0.012	0.298 ± 0.034	0.183 ± 0.031	0.3631 ± 0.00064	0.161 ± 0.0072	0.161 ± 0.021	0.321 ± 0.0065	0.257 ± 0.03
ALVYVPACRLVV			0.59 ± 0.049	0.624 ± 0.022	0.492 ± 0.021	0.634 ± 0.024	0.256 ± 0.011	0.303 ± 0.018	0.481 ± 0.018	0.4017 ± 0.0028
FALAYFFVLKSF			0.228 ± 0.019	0.246 ± 0.057	0.243 ± 0.045	0.423 ± 0.0084	0.0908 ± 0.011	0.0862 ± 0.02	0.1132 ± 0.001	0.172 ± 0.0026
RRWGFRSFLVGI			0.728 ± 0.018	0.7869 ± 0.0035	0.712 ± 0.026	0.803 ± 0.026	0.645 ± 0.041	0.647 ± 0.022	0.7579 ± 0.0061	0.7307 ± 0.0056
LASCRIVVIYSI			0.521 ± 0.029	0.52 ± 0.15	0.349 ± 0.036	0.5746 ± 0.0025	0.163 ± 0.0081	0.202 ± 0.022	0.364 ± 0.029	0.33 ± 0.068
MALAVRVVWCGA			0.179 ± 0.014	0.179 ± 0.024	0.204 ± 0.034	0.328 ± 0.0034	0.173 ± 0.0053	0.207 ± 0.025	0.295 ± 0.0084	0.269 ± 0.014
GGCILYFCMSIV			0.411 ± 0.021	0.492 ± 0.0065	0.387 ± 0.029	0.505 ± 0.011	0.371 ± 0.0097	0.374 ± 0.0063	0.472 ± 0.026	0.4 ± 0.026
WVDVAGIVAVAG			0.526 ± 0.021	0.55 ± 0.022	0.421 ± 0.026	0.5809 ± 0.0037	0.387 ± 0.0085	0.419 ± 0.016	0.5495 ± 0.003	0.522 ± 0.036
VLFFVLGVLVCL			0.319 ± 0.019	0.429 ± 0.019	0.348 ± 0.027	0.471 ± 0.01	0.319 ± 0.021	0.338 ± 0.019	0.441 ± 0.026	0.397 ± 0.043
VLSWRAWGESGV			0.387 ± 0.02	0.426 ± 0.015	0.466 ± 0.032	0.392 ± 0.014	0.493 ± 0.03	0.468 ± 0.011	0.382 ± 0.007	0.445 ± 0.024
SCSHYRLICSRL			0.9109 ± 0.0012	0.92 ± 0.015	0.752 ± 0.022	0.87 ± 0.012	0.6118 ± 0.0026	0.579 ± 0.033	0.7975 ± 0.0065	0.598 ± 0.25
LVILRCAFPVYG			0.469 ± 0.011	0.529 ± 0.0084	0.339 ± 0.03	0.538 ± 0.009	0.298 ± 0.014	0.332 ± 0.043	0.51345 ± 9.4e-05	0.3963 ± 0.00083
VTVWLISRVTGL			0.579 ± 0.034	0.67938 ± 0.00055	0.496 ± 0.017	0.647 ± 0.017	0.286 ± 0.035	0.314 ± 0.01	0.549 ± 0.018	0.435 ± 0.0085
KQNKKHKKLKSN			0.543 ± 0.051	0.718 ± 0.051	0.66 ± 0.026	0.694 ± 0.021	0.111 ± 0.0086	0.0929 ± 0.018	0.182 ± 0.036	0.182 ± 0.091
YLSLPSSIFLCF			0.501 ± 0.022	0.504 ± 0.0066	0.461 ± 0.018	0.59 ± 0.019	0.498 ± 0.024	0.38 ± 0.015	0.5422 ± 0.0047	0.422 ± 0.085
VSFHLGVIFALS			0.547 ± 0.018	0.5268 ± 0.0037	0.401 ± 0.026	0.536 ± 0.0072	0.268 ± 0.0063	0.343 ± 0.021	0.46 ± 0.013	0.39 ± 0.0086
GGGVRWGVLVLG			0.527 ± 0.007	0.606 ± 0.032	0.4 ± 0.035	0.599 ± 0.013	0.346 ± 0.017	0.391 ± 0.036	0.553 ± 0.012	0.474 ± 0.011
HLGAAVYVFSVL			0.664 ± 0.086	0.707 ± 0.019	0.551 ± 0.0072	0.705 ± 0.016	0.399 ± 0.071	0.424 ± 0.0089	0.64 ± 0.03	0.477 ± 0.006
PIFFFGRLLFFL			0.545 ± 0.045	0.592 ± 0.022	0.467 ± 0.0098	0.5856 ± 0.0046	0.3094 ± 0.0008	0.314 ± 0.014	0.499 ± 0.074	0.369 ± 0.016
GIIRVSSQVIVR			0.565 ± 0.0072	0.607 ± 0.018	0.445 ± 0.026	0.617 ± 0.0065	0.422 ± 0.012	0.443 ± 0.0097	0.5905 ± 0.0054	0.523 ± 0.035
LVVRLFVWDVVW			0.34 ± 0.016	0.374 ± 0.028	0.269 ± 0.043	0.473 ± 0.0097	0.224 ± 0.006	0.266 ± 0.028	0.436 ± 0.0076	0.347 ± 0.045
GLLGRSRLIFYN			0.721 ± 0.026	0.8063 ± 0.0023	0.661 ± 0.013	0.788 ± 0.01	0.427 ± 0.0058	0.458 ± 0.018	0.666 ± 0.0092	0.517 ± 0.088
